assay: yeast display, Sf9 membrane polyspecificity reagent, FACS + sequencing; frameworks hold sequencing errors
Method in brief: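 Galactose-induced (36–48 hours) yeast carrying a synthetic nanobody display library were exposed to 10% biotinylated, detergent-solubilized Sf9 membrane reagent at 4 °C for 1 hour. FACS followed streptavidin microbead enrichment, using low and high (top ~1%) gates for expression (anti-HA) and reagent binding (streptavidin). Colony PCR, MiSeq 2 × 250 sequencing and CDR-length filtering followed. Labels for polyreactivity reflect the gate of origin.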

| Sequence | polyreactivity (PSR sort gate) |
| --- | --- |
| QVQLVESGGGLVQAGGSLRLSCAASGSIIRTYAMGWYRQAPGKERELVAAISGSGSRTYYADSVKGRFTISRDNAKNTVYLQMNSLKPEDSAVYYCAADPGTPRYQFLWYGYWGQGTQVTVSS | low polyreactivity |
| QVQLVESGGGLVQAGGSLRLSCAASGSIIRTYVMGWYRQAPGKERELVAAITYSGGRTYYADSVKGRFTISRDNAKNTVYLQMNSLKPEDTAVYYCAARSPRPSAIYDYWGQGTQVTVSS | high polyreactivity |
| QVQLVESGGGLVQAGGSLRLSCAASGSIISANAMGWYRQAPGKESELVAAITSGDSTKYADSVKGRFTISRDNAKNTVYLQMNSLKPEDTAVYYCAVDRGVYKNRDGEEYWGQGTQVTVSS | low polyreactivity |
| QVQLVESGGGLVQAGGSLRLSCAASGSIISRTVMGWYRQAPGKEREFVATISRSGGITYYADSVKGRFTISRDNAKNTVYLQMNSLKPEDTAVYYCAAGKFVSFPSHYGYWGQGTQVTVSS | high polyreactivity |
| QVQLVESGGGLVQAGGSLRLSCAASGSIISVYVMGWYRQAPGTERELVASITSGASTNYADSVKGRFTISRDNETNTVYLQMNSLKPEDTAVYYCAARDWYDGFYYWGQGTQVTVSS | low polyreactivity |
| QVQLVESGGGLVQAGGSLRLSCAASGSIITINAMGWYRQAPGKERELVAAISKRGGSTYYADSVKGRFTISSDNGKHTVYLQLNSLKPEDTAFYYCNAREYIHWRGALGLFGSWGQGTQVNVSS | high polyreactivity |
| QVQLVESGGGLVQAGGSLRLSCAASGSIITSYTMGWYRQAPGKERELVAAISRSGGSTYYADSVKGRFTISRDNAKNTVYLQMNSLKPEDTAVYYCAARQSKLRRETPNDYWGQGTQVTVSS | high polyreactivity |
| QVQLVESGGGLVQAGGSLRLSCAASGSIIYRYAMGWYRQAPGKEMELVAAISTAGSTNYADSVKGRFTISRDNAKNTVYLLMNCLKPEDTAVYYCAAKSYRGRTQRSYGYWGQGTQVSVSS | low polyreactivity |
| QVQLVESGGGLVQAGGSLRLSCAASGSILADYAMGWDRQAPGKERELVAGISSGGSTNYADSVKGRFTISRDNAKNTVYLQMNSLKPEDTAVYYCNADQDFLFIGYLFDYWGQGTQVTVSS | low polyreactivity |
| QVQLVESGGGLVQAGGSLRLSCAASGSILADYAMGWYRQAPGKERELVAGISSGGSTNYADSVKGRFTISRDNAKNTVYLQMNSLKPEDTAVYYCNADQDFLFIGYLFDYWGQGTQVTVSS | low polyreactivity |
| QVQLVESGGGLVQAGGSLRLSCAASGSILAGYAMGWYRQAPGKERELVAAITTGGGSTYYADSVKGRFTISRDNAKNTVYLQMNSLKPEDTAVYYCAAYRKPGSWTWWVRGYGYWGQGTQVTVSS | low polyreactivity |
| QVQLVESGGGLVQAGGSLRLSCAASGSILARYAMGWYRQAPGKERELVAAISSRGGSTYYADSVKGRFTISRDNAKNTVYLQMNSLKPEDTAVYYCAAYVYLQVEYDYWGQGTQVTVSS | low polyreactivity |
| QVQLVESGGGLVQAGGSLRLSCAASGSILASYAMGWYRPAPGKERELVAAISWNGARSYYADSVKGRFTISRDNAKNTVYLQMNSLKPEDTAVYYCAGVRVGRTTFDYWGQGTQVTVSS | low polyreactivity |
| QVQLVESGGGLVQAGGSLRLSCAASGSILASYAMGWYRQAPGKERELVAAIRTSGDRTYYADSVKGRFTISRDNAKNTVYLQMNSLKPEDTAVYYCAATYRYRPYSYYQYYSWGQGTQVTVSS | high polyreactivity |
| QVQLVESGGGLVQAGGSLRLSCAASGSILAYNAMGWYRQAPGKERELVASITTSGGSTYYADSVKGRFTISRDNAKNTVYLQMNSLKPEDTAVYYCNAEYWLGRWLRYGYWGQGTQVTVSS | high polyreactivity |
| QVQLVESGGGLVQAGGSLRLSCAASGSILAYYAMGWYRQAPGKERELVADITSSGGITYYADSVKGRFTISRDNAKNTVYLQMNSLKPEDTAVYYCNADSWAIGGGSYPYDYWGQGTQVTVSS | low polyreactivity |

| Sequence | polyreactivity (PSR sort gate) |
| --- | --- |
| QVQLVESGGGLVQAGGSLRLSCAASGSILDLNAMGWYRQAPGKERELVAAISYSGDSTYYADSVKGRFTISRDNAKNTVYLQMNSLKPEDTAVYYCNAASFSDQGTLNHFYDWGQGTQVTVSS | low polyreactivity |
| QVQLVESGGGLVQAGGSLRLSCAASGSILDPYAMGWYRQAPGKERELVADISSGASTNYADSVKGRFTISRDNAKNTVYLQMNSLKPEDTAVYYCAAVYVEYSEYRYIVELYYWGQGTQVTVSS | low polyreactivity |
| QVQLVESGGGLVQAGGSLRLSCAASGSILDYYVMGCSRQSPGKERELVAAIRGGGSTYYADSVKGRFTISRDNAKNTVYLQMNSLKPEDTAVYYCAKDSQTARDFDYWGQGTQVTVSS | low polyreactivity |
| QVQLVESGGGLVQAGGSLRLSCAASGSILEIYAMGWYRPAPGKEREFVASISWDVSSTYYADSVKGRFTISRDNAKNTVYLQMNSLKPEDTAVYYCATSLVWGLYDWYYDLSAAFDYWGQGTQVTVSS | low polyreactivity |
| QVQLVESGGGLVQAGGSLRLSCAASGSILEIYAMGWYRQAPGKEREVVASISWDVSSTYYADSVKGRFTISRDNAKNTVYLQMNSLKPEDTAVYYCATSLVWGLYDWYYDLSAAFDYWGQGTQVTVSS | low polyreactivity |
| QVQLVESGGGLVQAGGSLRLSCAASGSILEPYAMGWYRQAPGKERELVATIRRGGSTYYADSVKGRFTISRDNAKNTVYLQMNSLKPEDTAVYYCAADRSVQVTFDYWGQGTQVTVSS | low polyreactivity |
| QVQLVESGGGLVQAGGSLRLSCAASGSILFKNAMGWYRQAPGKERELVAAISTSGGRTYYADSVKGRFTISRDNAKNTVYLEMNSLKPEDTAVYYCAAVYPRQVSQVWRDDYWGQGTQVTVSS | high polyreactivity |
| QVQLVESGGGLVQAGGSLRLSCAASGSILFYYAMGWYRQAPGKERELVAAITWRGGSTYYADSVKGRFTISRDNAKNTVYLQMNSLKPEDTAVYYCAADLYWYRYYGYDYWGQGTQVTVSS | low polyreactivity |
| QVQLVESGGGLVQAGGSLRLSCAASGSILGFNAMGWYRQPPGKERELVAAIRWSGDSTYADSVKGRFTISRDNAKNSVYLQMNSLKPEDTAVYYCNAVTTYGYWYKYDYWGQGTQVTVSS | low polyreactivity |
| QVQLVESGGGLVQAGGSLRLSCAASGSILGRYAMGWYRQAPGKERELVAVITSGGSTNYADSVKGRFTISRDNAKNTVYLQMNSLKPEDTAVYYCAVRPYELHRLADQPGGDDYWGQGTQVTVSS | low polyreactivity |
| QVQLVESGGGLVQAGGSLRLSCAASGSILGSYAMGWYRQAPGKERELVAAISWNGARTYYADSVKGRFTISRDNAKNTVYLQMNSLKPEDTAVYYCARVRVGRTTFDYWGQGTQVTVSS | low polyreactivity |
| QVQLVESGGGLVQAGGSLRLSCAASGSILGTYAMGWYRQAPGKERELVAAISWNGGSTYYADSVKGRFTISRDNAKNTVYLQMNSLKPEYTAVYYCAARQWSQGWYDYWGQGTQVTLSS | high polyreactivity |
| QVQLVESGGGLVQAGGSLRLSCAASGSILGWYAMGWYRQAPGKERQLVAAISYSGTSTYYADSVKGRFTISRDNAKNPVYLQMNSLNPEDTAVYYCNAFFSSRYYRVGSGYDYWGQGTQVTVSS | high polyreactivity |
| QVQLVESGGGLVQAGGSLRLSCAASGSILGYYAMGWYRPAPGKERELVAAISGRGGSTYYADSVKGRFTISRDNAKNTVYLQMNSLKPEDTAVYYCAVVWGSYYWGQGGGDYWGQGTQVTVSS | high polyreactivity |
| QVQLVESGGGLVQAGGSLRLSCAASGSILLNNAMGWYRQAPGKERELVAAISLSGGGSTYYADSVKGRFTISRDNAKNTVYLQMNSLKPEDTAVYYCNADDPYLYYDSYDYWGQGTQVTVSS | low polyreactivity |

Source: the nanobody polyreactivity screen of Harvey et al. (2022)
